Results published in the supplement of paper PMC12042874.
± gives the uncertainty stated by the source.

Test: amyloid nucleation score (Sup35N fusion, yeast selection) (log enrichment); library NNK1; higher = more nucleation; inactive = no reads after selection
In short: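 The nucleation score is the log enrichment of output over input reads, calculated with DiMSum and centred on the mode score of non-aggregating sequences. Sequences with under 100 input reads were excluded. Reads came from Illumina sequencing of plasmid inserts from psi-negative yeast expressing Sup35N fused to peptides of 20 random codons, induced 24 hours with 100 μM copper sulfate and grown 7 days at 30°C without adenine and uracil.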

Substance	amyloid nucleation score
GFNKSSSGFVSSNGDIDYWD	-1.68 ± 2.1
GFSEKQNY	0.383 ± 0.54
GFSLDRFSDHVLMGNSD	-0.585 ± 0.23
GFSRQSTWMCRKWSTNPRTW	1.15 ± 0.34
GFTSHFRYLWHILIRYWSNP	0.442 ± 0.39
GFVMKLLL	1.35 ± 0.21
GFVSAKLIPCAVLQKGLLPV	0.313 ± 0.51
GFVTKDWLSVMRYIYQMLTS	-0.016 ± 0.4
GFYGCYSYVVLGGRVEP	-1.02 ± 2.4
GFYGNIYFDNLRLNVMTRRG	9.21 ± 0.061
GGCVGLCFRYSFPTCDSC	1.65 ± 0.42
GGEDLRKFLDMFVIVSKNTT	0.67 ± 0.46
GGFFICQGDTRVV	0.222 ± 0.58
GGFIR	-0.516 ± 1.1
GGFSNFMMVCNVATFSSNQL	3.47 ± 0.19
GGHHVSPVCLEWNNLRWDI	0.897 ± 0.78
GGKRVGNIVVRRAQIIIGRR	1.07 ± 0.7
GGLICTGNFY	inactive
GGLVYRLEKDSF	inactive
GGNKPCG	2.11 ± 0.57
GGSFYKAILFNRKCVYVGSR	0.942 ± 0.51
GGVLGSTKSLFVDPANLGGL	inactive
GGWSGRSLRDCVCMVHIKVG	0.071 ± 0.75
GGYIDPLS	inactive
GHPVWRCFSDGSSPLFWDYG	inactive

Substance	amyloid nucleation score
GHRTWRLITAIDA	0.088 ± 0.4
GHSSRLRFT	-0.42 ± 0.48
GHVVLFLLYDLSFYSNIFCA	0.712 ± 0.19
GIFKVEHFFKFMYDLIVSKL	-0.312 ± 0.27
GIFSNLEVGYKPKN	-0.694 ± 0.39
GIGMRGVQHSSCEVARYWGS	1.12 ± 0.35
GIKFQSVGGGVVANSVR	inactive
GILFWSGL	1.07 ± 0.66
GILYQV	-0.403 ± 0.29
GIQLTVFGLLLCFGTGLKVF	0.078 ± 0.6
GIRPNIANFSYKVHHPVLRG	inactive
GITLSIAFLKAYLCRSKGGS	2.62 ± 0.14
GIWCFACMSKFMYTRFSYN	-1.02 ± 0.67
GKISICTRISMYSQSFVWIP	-0.109 ± 0.45
GKNWVRPRPGLVTNTKEYES	-0.46 ± 0.76
GKQHSLS	-1.44 ± 1.9
GKYILYDQCSNTINSGKLSI	inactive
GKYMFPCCMTAITQKLRPRR	-0.108 ± 0.33
GLAWTYLRPW	0.143 ± 0.32
GLCYNEVDAVASGESGDDRG	-0.376 ± 0.45
GLDFCIVRACTKRYSWNQLG	1.69 ± 0.56
GLFVREFPLDMIVVMVRSMC	-0.017 ± 0.97
GLGFTGWF	0.708 ± 0.73
GLKALILNSSSCCRARFGAA	0.307 ± 0.23
GLKIQPLCS	0.373 ± 0.49

Substance	amyloid nucleation score
GLLLSCSWNIDVSA	0.235 ± 0.56
GLLRLDRVNISALICHQVNV	0.873 ± 0.62
GLPKSFM	-0.981 ± 1.3
GLQSKV	-0.974 ± 2.4
GLRALEMSLSES	inactive
GLRQYF	-0.317 ± 0.84
GLSGPRRQMSYMGWQRVRF	-0.247 ± 1.1
GLTCSKAAIKRLG	-0.367 ± 0.54
GLTINNSI	0.588 ± 0.38
GLWLKLLVDLKHMKIEHPWH	0.933 ± 0.72
GMMHYRFLIFFWYTSRTAYW	-0.355 ± 0.84
GMRVMRYYLPRGNQKFGESR	0.823 ± 0.63
GMWCLFRKCSVA	inactive
GNAFFTYMINNYVSYFWHMP	6.42 ± 0.059
GNCWYV	-0.16 ± 0.31
GNDLNRREVELGLNSIYKSY	0.711 ± 0.73
GNKDDTV	-1.6 ± 1.1
GNNLHLRS	-0.121 ± 0.66
GNPGFELWLLSMLIGA	inactive
GNSYLILNGRSYSRIFARSS	inactive
GNVFRLWLNM	0.369 ± 0.38
GNWTGGYCVCGRQSSLIVVE	-0.016 ± 1.7
GPFGLGSMSGSIKWRYHVCC	0.528 ± 0.43
GPISLWSPLRSVN	0.444 ± 0.84
GPKKTLMFPSFISDSCARKG	0.535 ± 1.2

Substance	amyloid nucleation score
GPLINTDELWIWSAVCCCRL	-0.781 ± 1.9
GPRDFGDAWCYTSNNVKSCS	0.216 ± 0.48
GPSWFGVPTAAFF	0.502 ± 0.43
GQHMASNLERMV	3.34 ± 0.085
GQTITP	-0.689 ± 1
GRFRSTTVWFWVLDVLYGCS	0.547 ± 0.29
GRFVEMRLEHYRLNSRENSL	-1.75 ± 2.7
GRGANLCYRTRTVLLVNNLS	-0.199 ± 1.2
GRGVPGCGCIRDRSLMTNWS	-0.664 ± 0.41
GRKIDCGRLIMIAVRCNQVA	0.358 ± 0.41
GRLSGYEWGRKSRSPGRWTV	0.438 ± 1.1
GRMHKLVNCRAFTGLYKGIY	-1.03 ± 0.62
GRMTFFLVWNCVSFFVTQLL	-0.611 ± 2.1
GRREMEGTHIKKICRGGRTR	1.53 ± 0.73
GRRYCRANSWLATTSSRISL	2.1 ± 0.44
GRSLSFLLIGKYWQYTTQAR	inactive
GRVCKHIFK	0.375 ± 1.2
GRVLDGRILLPVILSVWGCS	-0.563 ± 1.1
GRYILGFE	2.17 ± 0.17
GSCLIRASFQVHMILSSGHL	inactive
GSDMCKSSVSECIKKLATIQ	inactive
GSHSRGY	-0.289 ± 0.36
GSKKYQIMSVSELKVQCCGS	0.445 ± 0.34
GSKRT	0.316 ± 0.42
GSMDCLYVSYLGNYENRYRG	0.232 ± 0.79

Substance	amyloid nucleation score
GSNLVQKRRCYSWMSLYLSS	0.333 ± 0.26
GSPLVVSKTVVFMSGNF	7.149 ± 0.052
GSQIWW	0.517 ± 0.46
GSQMYNVHVVCVT	0.154 ± 0.73
GSRLCRMSSSMIGSLRVIWG	-0.146 ± 0.25
GSSRDNGQFYSFELS	0.398 ± 0.64
GSSRKSIVNIRILPSFALAE	-0.272 ± 0.52
GSTENTVYRRGEFGELVWKC	-0.311 ± 0.44
GSVAFFNLNMLRVLYIIYER	0.369 ± 0.36
GSWQDSRRNFWSGRGMFERV	0.484 ± 0.47
GSYGERIGEDVVNFARSYNG	0.267 ± 0.38
GSYGNDVWRP	-0.041 ± 0.47
GSYWWDCFVNGGYEKFCTVP	0.191 ± 0.68
GTIWYITLAGRFNDVIIYTM	2.4 ± 0.077
GTREPDFGCKLDWDSY	0.924 ± 0.25
GTSSRNLAFLVPWMVYMRVR	0.635 ± 0.41
GTTLDYWRVMEMSGDFTSFC	-0.073 ± 0.68
GTYRRQKMELMYSSLGLFGC	-0.634 ± 0.56
GVALFVIGLNSQIVANSYTS	6.285 ± 0.055
GVAWMFLCYVLAA	0.575 ± 0.27
GVCVEFCLRGSRFWLMKNKA	0.383 ± 0.84
GVCWLKIRALPDSYWLVFL	-0.776 ± 0.74
GVDGFWRMVSKLPHGRLDQH	-0.123 ± 0.38
GVDSFTDSIEYKVGRRVFRH	1.21 ± 0.76
GVFMKYQ	0.18 ± 1.2

Substance	amyloid nucleation score
GVGLDCFDRTWFWMFQTPQC	0.483 ± 0.35
GVGSSFSTSKAYWVGYECIT	-0.217 ± 0.41
GVLEVIYVSLFRGRAESVFR	1.67 ± 0.34
GVLRHNCFIESGRIISVMVT	-0.404 ± 0.65
GVLVKNQGLLVNAIHSMQTN	-0.797 ± 2.4
GVMACDMCCPNKRVSEPRAS	-0.278 ± 0.41
GVMIWRQRWRKVIVGGALRW	-0.217 ± 0.63
GVNCKYVVLKNNVIWTHCLR	6.453 ± 0.05
GVPDFA	0.685 ± 0.7
GVQAVSSPTSVFK	0.462 ± 0.85
GVQFQVVRMSCSVLSARLRL	1.29 ± 0.18
GVSVSYLDGGMAWPNEGGRK	0.19 ± 0.62
GWCRG	inactive
GWENSLYNFFCLW	0.342 ± 0.35
GWIVAMRKR	0.236 ± 1.6
GWMVRMLEHYHPAV	-0.226 ± 0.42
GWNVTEIYFFMWVRITSGWM	2.27 ± 0.19
GWYSFLPSRNYFK	4.92 ± 0.072
GYGWFLCTIHVQKLVCWPTL	-0.114 ± 1.1
GYHSFGLVHEGETGK	inactive
GYHSKFRWVLLFVVTSASGE	inactive
GYHSMLSLDDQIFVKLHDAK	0.135 ± 1.2
GYLSGSMSDETGTPDMCTRG	0.353 ± 0.51
GYVDPFRLYQGLMIFDYVGS	-0.332 ± 0.44
HAIFCLSKLTFLGPILGSFT	7.112 ± 0.048

Substance	amyloid nucleation score
HAKHLLRKQWLDGCA	inactive
HANCG	-0.155 ± 0.59
HASWVRAITWVHQAGTYVML	-0.693 ± 1.3
HCCFTGRKGYSRFAVLSCST	1.11 ± 0.48
HCLGIRMVRRYILDRRCHWV	inactive
HCMLGMFHWVRRQVYRSTKW	2.34 ± 0.25
HCRKYTKTSR	-0.327 ± 0.47
HDGLLVFAFHY	-0.378 ± 1.4
HELMLQILGLAFLLGMFAGV	-0.747 ± 0.63
HFLTDMNFKRARDSDLSSVW	0.489 ± 0.29
HFVILVLFMMMSSIGMVTRA	5.16 ± 0.054
HFWLDARSRAKKPAQGIIKG	-0.426 ± 0.34
HGGKCLSMRYRDCALWTFQG	0.031 ± 1.2
HGGRDVCDKGVSSRGHRW	0.276 ± 0.79
HGLKWGFQLTNLSMLVTSCM	-0.475 ± 1.1
HHAGPSG	0.72 ± 0.46
HHALHAKAERLTPPMPPCKM	0.714 ± 0.84
HHCHSSGL	0.981 ± 0.93
HHGRFRCKAVCRRKCGLVQV	inactive
HIFWYCHMFPVVMASIIINS	0.637 ± 0.59
HILRIWLRGLWMILYRTYEN	-0.513 ± 0.84
